Patent publication US11560546B2, “Methods for neural conversion of human embryonic stem cells” (MEMORIAL SLOAN KETTERING CANCER CENTER, priority 2009, dated 2023)
“Also recorded” adds a separate entry of the source.

B1: Wnt3A: WNT protein added to neural rosette stage cells (protein, UniProt P56704 19-352, looked up)
Protein Wnt-3a: SYPIWWSLAVGPQYSSLGSQPILCASIPGLVPKQLRFCRNYVEIMPSVAEGIKIGIQECQHQFRGRRWNCTTVHDSLAIFGPVLDKATRESAFVHAIASAGVAFAVTRSCAEGTAAICGCSSRHQGSPGKGWKWGGCSEDIEFGGMVSREFADARENRPDARSAMNRHNNEAGRQAIASHMHLKCKCHGLSGSCEVKTCWWSQPDFRAIGDFLKDKYDSASEMVVEKHRESRGWVETLRPRYTYFKVPTERDLVYYEASPNFCEPNPETGSFGTRDRTCNVSSHGIDGCDLLCCGRGHNARAERRREKCRCVFHWCCYVSCQECTRVYDVHTCK
B2: Wnt-1: caudalizing factor (Peprotech 50 ng/ml) (protein, UniProt P04628 28-370, looked up)
Proto-oncogene Wnt-1: ANSSGRWWGIVNVASSTNLLTDSKSLQLVLEPSLQLLSRKQRRLIRQNPGILHSVSGGLQSAVRECKWQFRNRRWNCPTAPGPHLFGKIVNRGCRETAFIFAITSAGVTHSVARSCSEGSIESCTCDYRRRGPGGPDWHWGGCSDNIDFGRLFGREFVDSGEKGRDLRFLMNLHNNEAGRTTVFSEMRQECKCHGMSGSCTVRTCWMRLPTLRAVGDVLRDRFDGASRVLYGNRGSNRASRAELLRLEPEDPAHKPPSPHDLVYFEKSPNFCTYSGRLGTAGTAGRACNSSSPALDGCELLCCGRGHRTRTQRVTERCNCTFHWCCHVSCRNCTHTRVLHECL
B3: FGF8: caudalizing factor (R&D 50 ng/ml) (protein, UniProt P55075 23-233, looked up)
Fibroblast growth factor 8: QEGPGRGPALGRELASLFRAGREPQGVSQQHVREQSLVTDQLSRRLIRTYQLYSRTSGKHVQVLANKRINAMAEDGDPFAKLIVETDTFGSRVRVRGAETGLYICMNKKGKLIAKSNGKGKDCVFTEIVLENNYTALQNAKYEGWYMAFTRKGRPRKGSKTRQHQREVHFMKRLPRGHHTTEQSLRFEFLNYPPFTRSLRGSQRTWAPEPR

Assays:
Format in all cases: cell-based, human
hESC = experiment: Real-Time PCR of pluripotency and germ layer markers in treated hESC
Method: Cells and Culture Conditions (dual SMAD and floor plate). hESCs (WA-09; passages 35-45) were cultured on mouse embryonic fibroblasts plated at 12-15,000 cells/cm2 (MEFs, Global Stem). A medium of DMEM/F12, 20% knockout serum replacement (GIBCO), 0.1 mM b-mercaptoethanol, 6 ng/mL FGF-2 was changed daily. Cells were passaged using 6 U/mL of dispase in hESCs media, washed and re-plated at a dilution of 1:5 to 1:10. Neural Induction (Dual SMAD). hESC cultures were disaggregated using accutase for 20 minutes, washed using hESC media and pre-plated on gelatin for 1 hour at 37° C. in the presence of ROCK inhibitor to remove MEFs. The nonadherent hESC were washed and plated on matrigel at a density of 10,000-25,000 cells/cm^2 on matrigel (BD) coated dishes in MEF conditioned hESC media (CM) spiked with 10 ng/mL of FGF-2 and ROCK-inhibitor. […] The ROCK inhibitor was withdrawn, and hESC were allowed to expand in CM for 3 days or until they were nearly confluent. The initial differentiation media conditions included knock out serum replacement (KSR) media with […] TGF-beta inhibitor (SB431542, Tocris) and 500 ng/mL of Noggin (R&D). Upon day 5 of differentiation, the TGF-b inhibitor was withdrawn and increasing amounts of N2 media (25%, 50%, 75%) was added to the KSR media every two days while maintaining 500 ng/mL of Noggin. For MS5 induction, established methods previously reported were used^18. Quantitative Real-Time (Dual SMAD). Total RNA was extracted using an RNeasy kit (Qiagen). For each sample, 1 ug of total RNA was treated for DNA contamination and reverse transcribed using the Quantitect RT kit (Qiagen). Amplified material was detected using Quantitect SYBR green probes and PCR kit (Qiagen) on a Mastercycler RealPlex2 (Eppendorf). Results were normalized to a HPRT control and are from 4-6 technical replicates of 2-3 independent biological samples at each data point. Neuronal Patterning and Differentiation (Dual SMAD). Dopaminergic patterning was initiated using BDNF, ascorbic acid, sonic hedgehog, and FGF8 in N2 media as previously reported^18, and maturation was performed in the presence of BDNF, ascorbic acid, GDNF, TGFb-1, and cyclic-AMP. Motor neuron patterning was performed using BDNF, ascorbic acid, sonic hedgehog, and retinoic acid in N2 media as previously reported^16. Microscopy, Antibodies, and Flow Cytometry (Dual SMAD). Tissue was fixed using 4% paraformaldehyde for 20 minutes, washed with PBS, permeablized using 0.5% Triton X in PBS, and blocked using 1% BSA in PBS. Primary antibodies used for microscopy included PAX6 (Covance), Oct4 (Biovision), AP2 (Novus Biologicals), GBX2 (Sigma), HNK1 (Sigma), HOXB4 (Developmental Studies Hybridoma Bank (DSHB)), Nestin (R&D), NKX6.1 (DSHB), OTX2 (gift), p75 (Advanced Target Systems.), PAX7 (DSHB), PLZF (Calbiochem), TUJ1 (Covance), ZO1 (Zymed), BF1 (FOXG1, gift Esseng Lai), TH (Sigma), HB9 (DSHB), ISL1 (DSHB). CD105-PE (eBioscience) was used for excluding MS5 stromal cells for flow cytometery on a FACS can (BD). Floor Plate: Neural Induction.

[1] = system: rosette-stage neural cells; experiment: Floor plate induction in stromal-feeder (MS5) derived / rosette-stage neural cells; settings: added to neural rosette stage cells
Method: (§1) For MS5 induction, established methods previously reported were used (Perrier et al., 2004). Feeder free neural induction was carried out as previously described (Chambers et al., 2009). Briefly, hESCs cultures were disaggregated using accutase for 20 minutes, washed using hESCs media and pre-plated on gelatin for 1 hour at 37° C. in the presence of ROCK inhibitor to remove MEFs. The nonadherent hESCs were washed and plated on matrigel at a density of 20,000 cells/cm2 on matrigel (BD) coated dishes in MEF conditioned hESCs media (CM) spiked with 10 ng/mL of FGF-2 and ROCK-inhibitor. The ROCK inhibitor was withdrawn, and hESCs were allowed to expand in CM for 3 days or until they were nearly confluent. The initial differentiation media conditions included knock out serum replacement (KSR) media with […] TGF-b inhibitor (SB431542, Tocris) and 500 ng/mL of Noggin (R&D). Upon day 5 of differentiation, increasing amounts of N2 media (25%, 50%, 75%) was added to the KSR media every two days while maintaining 500 ng/mL of Noggin and TGF-b inhibitor. For FP induction, Sonic C25II was added at 200 ng/ml.
hESC derived neural cells at the rosette stage were differentiated into both CNS and PNS progeny and patterned towards multiple cells fates along the A/P and D/V axis (Elkabetz et al., 2008). […] Specification of progenitor cells into FP tissue and cells during mouse development was thought to depend on SHH signaling within early neural lineages. The inventors tested whether rosette-stage neural cells were competent to undergo FP specification in response to SHH. High concentrations of SHH were needed to induce FP during mouse development (Roelink et al., 1994; Ericson et al., 1996). Recombinant N-terminal SHH has a limited activity range due to the lack of posttranslational modifications required for full SHH action. Recently, a modified version of recombinant SHH became available where SHH was tethered to two Isoleucines (Sonic C25II, R&D Systems), mimicking more closely the potency of mammalian SHH protein.
The majority of cells retained rosette cytoarchitecture and staining for the AN marker BF1 as described previously (FIG. 1A) (Elkabetz et al., 2008).
Based on the hypothesis that FP specification in the mouse occurs at early developmental stages, at the time of or prior to neural induction, the inventors repeated SHH induction studies at Day 9, the time of rosette specification, using classic stromal-feeder mediated neural induction protocols (Elkabetz et al., 2008). Under this paradigm the inventors noticed a drastic change in cell morphology restricted to the cells treated with SHH-C25II (FIG. 1B).

hESCs [2] = experiment: Floor plate induction in NSB protocol, FOXA2 immunostaining; settings: added early along FP differentiation; BIO 100 nM
Method: as §1
Tissue was fixed using 4% paraformaldehyde and Picric acid for 15 minutes, washed with PBS, permeablized using 0.3% Triton X in PBS, and blocked using 10% Donkey Serum. Primary antibodies used for microscopy included PAX6 (Covance), TUJ1 (Covance), ZO1 (Zymed), BF1 (FOXG1, gift E.Lai), TH (Pelfreez), NKX6.1 (DSHB) and FOXA2 (SantaCruz).
Using this protocol, in combination with compositions and methods of the present inventions, the inventors aimed to optimize FP differentiation by adding Sonic C25II at different time points during neural induction and assaying for FOXA2 expression. Differentiation was initiated upon NSB exposure, and Sonic C25II was added at Day 1, Day 3, Day 5, or Day 7 (FIG. 2A).

hESCs [3] = experiment: qRT-PCR of FP, AN and regional markers during FP induction
Method: as §1
Total RNA was extracted using an RNeasy kit (Qiagen). For each sample, 1 ug of total RNA was treated for DNA contamination and reverse transcribed using the Superscript III (Invitrogen). Amplified material was detected using Taqman probes and PCR mix (ABI) on a Mastercycler RealPlex2 (Eppendorf). All results were normalized to a HPRT control and are from 3 technical replicates of 3 independent biological samples at each data point.
FOXA2 is a key marker of FP development. However, FOXA2 is also highly expressed in the endoderm. To further characterize the hESC derived putative FP tissue, the inventors performed qRT-PCR analyses for candidate markers at Day 11. […] The inventors further characterized the nature of FOXA2+ putative FP cells using a panel of neural precursor, glial, neuronal and non-neural markers (FIG. 7). […] To distinguish FOXA2 expression in hESC derived FP versus endoderm tissue, the inventors differentiated hESCs to endoderm (D'Amour et al., 2005).
To gain further insight into the factors critical for human FP specification, high resolution temporal gene expression profiles of candidate markers were performed at 6 time points during the 11 day protocol.
The inventors contemplated the use of SIX6 as a putative marker of anterior FP identity. Thus SIX6 status of the hESC derived FP was used to mark respecification in response to known caudalizing agents such as FGF8, Wnt-1, and Retinoic Acid. Each of these caudalizing factors was added in combination with SHH and the resulting tissue was assessed for expression of the FP markers FOXA2 and NETRIN-1, the AN marker BF1, and putative anterior FP marker SIX6.

hESCs derived FP = experiment: SHH enhancer (SBE1/SBE2) LacZ constructs in hESC derived FP
Source text: As mentioned above, studies had identified different enhancers that directed SHH expression to different A/P region along ventral axis (Jeong et al., 2008). […] In the absence of caudalizing factors (SHH C25II alone), LacZ expression was observed herein following transfection with the SBE2 but not the SBE1 enhancer supporting the hypothesis that hESC derived FP is anterior by default (FIG. 6C). In contrast SBE2 activity was abolished upon treatment with Wnt1 or FGF8 while SBE1 activity was induced under these conditions.

[4] = caudalizing factor added in combination with SHH

Molecule	CDX2 expression (hESC)	FP competency of neural rosette stage cells [1]	SIX6 expression (hESCs [3]; [4])	SBE1 enhancer activity (LacZ) (hESCs derived FP)	SBE2 enhancer activity (LacZ) (hESCs derived FP)	also measured
Noggin	Suppression of CDX2					SOX17 expression (endodermal lineage) (hESC): suppression of SOX17
O=C1Nc2cc(Br)ccc2/C1=C1/Nc2ccccc2/C1=N\O [BIO, reference compound]		not sufficient to induced FP competency				FOXA2 expression (hESCs [2]): can increase FOXA2 expression
NC(=O)c1ccc(-c2nc(-c3ccc4c(c3)OCO4)c(-c3ccccn3)[nH]2)cc1 [SB431542, 4-[4-(1,3-benzodioxol-5-yl)-5-(2-pyridinyl)-1H-imidazol-2-yl]-benzamide]	dramatic increase					Brachyury expression (mesodermal lineage) (hESC): suppression of Brachyury; Nanog expression (hESC; hESC in KSR): rapid loss of Nanog expression; also recorded: most dramatic downregulation
B1		not sufficient to induced FP competency				
B2		not sufficient to induced FP competency	significant reduction in SIX6 expression	induced	abolished	FP production based on FOXA2 and Netrin-1 expression (hESCs [3]; added in combination with SHH): significantly potentiated FP production; BF1 expression (hESCs [3]; [4]): dramatic reduction in BF1 expression; midbrain FP markers CORIN and NOV and DA progenitor markers LMX1B, EN1, NGN2 (hESCs [3]; qPCR): significant increase
B3			significant reduction in SIX6 expression	induced	abolished	
